The source of these data is patent US20060234282A1 (NATIONAL RESEARCH COUNCIL OF CANADA, published 2006).

For the experiment, the target named is T1, rat galanin receptor-2 (GAL-R2) (rat, UniProt O08726 1-372).
T1 construct: Full 372 amino acid open reading frame expressed from pCDNA3/GALR-2 in HEK293 cells; cAMP assays used whole cells; also called rat GAL-R2; RGALR2.PRO
T1 sequence: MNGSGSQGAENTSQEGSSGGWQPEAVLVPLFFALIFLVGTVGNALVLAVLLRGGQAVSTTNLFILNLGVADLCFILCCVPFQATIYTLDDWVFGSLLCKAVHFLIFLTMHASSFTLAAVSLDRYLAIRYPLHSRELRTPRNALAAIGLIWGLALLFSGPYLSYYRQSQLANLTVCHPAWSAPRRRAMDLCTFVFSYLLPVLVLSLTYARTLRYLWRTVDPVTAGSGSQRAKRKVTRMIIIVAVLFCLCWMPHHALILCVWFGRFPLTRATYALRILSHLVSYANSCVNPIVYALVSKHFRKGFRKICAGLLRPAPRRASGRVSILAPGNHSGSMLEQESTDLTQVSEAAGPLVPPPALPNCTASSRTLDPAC
Put plainly: displacement of ^125I-galanin, membranes of HEK293 cells expressing rat GAL-R2. As for the experimental part: Binding reactions proceeded for 20 min at room temperature and were stopped by filtration through Unifilters-96, GF/B filters (Canberra Packard), using the 96-well Filtermate 196 filtration system from Canberra Packard. Filters were washed 5 times with 0.5 ml of ice cold 20 mM HEPES pH 7.5. The filters were dried at 55° C. for one hour and then 100 μl of μScint-20 (Canberra Packard) was added per well. Filters were counted with the Topcount microplate counter from Canberra Packard.

As a reminder, the Ki is a dissociation constant, usually derived from enzyme kinetics or from competition with a known ligand. High values mean weaker binding, low ones tighter binding.

Take M40 (peptide): the inhibitory constant (Ki) was found to be 8.3 nM. This counts as single-digit nanomolar.

B1: vasoactive intestinal polypeptide (peptide, UniProt P01282 125-152, looked up)
peptide: HSDAVFTDNYTRLRKQMAVKKYLNSILN
notes: Galanin-unrelated control ligand
In the case of B1, the binding result is on record as “no binding”.

B2: substance P (peptide, UniProt P20366 58-68, looked up)
peptide: RPKPQQFFGLM
notes: as for B1
In the case of B2, the binding result is reported as “no binding”.
